In publication PMC3963918, “CCHCR1 Interacts Specifically with the E2 Protein of Human Papillomavirus Type 16 on a Surface Overlapping BRD4 Binding” (PLoS ONE, 2014):

B1: unnamed (parent)
chain 1: METLCQRLNVCQDKILTHYENDSTDLRDHIDYWKHMRLECAIYYKAREMGFKHINHQVVPTLAVSKNKALQAIELQLTLETIYNSQYSNEKWTLQDVSLEVYLTAPTGCIKKHGYTVEVQFDGDICNTMHYTNWTHIYICEEASVTVVEGQVDYYGLYYVHEGIRTYFVQFKDDAEKYSKNKVWEVHAGGQVILCPTSVFSSNEVSSPEIIRQHLANHPAATHTKAVALGTEETQTTIQRPRSEPDTGNPCHTTKLLHRDSVDSAPILTAFNSSHKGRINCNSNTTPIVHLKGDANTLKCLRYRFKKHCTLYTAVSSTWHWTGHNVKHKSAIVTLTYDSEWQRDQFLSQVKIPKTITVSTGFMSI
chain 2: MDQNNSLPPYAQGLASPQGAMTPGIPIFSPMMPYGTGLTPQPIQNTNSLSILEEQQRQQQQQQQQQQQQQQQQQQQQQQQQQQQQQQQQQQQQQQAVAAAAVQQSTSQQATQGTSGQAPQLFHSQTLTTAPLPGTTPLYPSPMTPMTPITPATPASESSGIVPQLQNIVSTVNLGCKLDLKTIALRARNAEYNPKRFAAVIMRIREPRTTALIFSSGKMVCTGAKSEEQSRLAARKYARVVQKLGFPAKFLDFKIQNMVGSCDVKFPIRLEGLVLTHQQFSSYEPELFPGLIYRMIKPRIVLLIFVSGKVVLTGAKVRAEIYEAFENIYPILKGFRKTT
B2: unnamed (parent)
chain 1: B1 chain 1
chain 2: KAGRAEAEGLRAALAGAEVVRKNLEEGSQRELEEVQRLHQEQLSSLTQAHEEALSSLTSKAEGLEKSLSSLETRRAGEAKELAEAQREAELLRKQLSKTQEDLEAQVTLVENLRKYVGEQVPSEVHSQTWELERQKLLETMQHLQEDRDSLHATAELLQVRVQSLTHILALQEEELTRKVQPSDSLEPEFTRKCQSLLNRWREKVFALMVQLKAQELEHSDSVKQLKGQVASLQEKVTSQSQEQAILQRSLQDKAAEVEVERMGAKGLQLELSRAQEARRRWQQQTASAEEQLRLVVNAVSSSQIWLETTMAKVEGAAAQLPSLNNRLSYAVRKVHTIRGLIARKLALAQLRQESCPLPPPVTDVSLELQQLREERNRLDAELQLSARLIQQEVGRAREQGEAERQQLSKVAQQLEQELQQTQESLASLGLQLEVARQGQQESTEEAASLRQELTQQQELYGQALQEKVAEVETRLREQLSDTERRLNEARREHAKAVVSLRQIQRRAAQEKERSQELRRLQEEARKEEGQRLARRLQELERDKNLMLATLQQEGLLSRYKQQRLLTVLPSLLDKKKSVVSSPRPPECSASAPVAAAVPTRESIKGSLSVLLDDLQDLSEAISKEEAVCQGDNLDRCSSSNPQMSS

Variants of: B1
Experiment: GPCA
Conditions: with partner chain of the complex shown;; read off a plot
chain 1 E39A was tested, and the ratio to parent was 1.2. chain 1 I73A was tested, and the ratio to parent was 0.97. Variant chain 1 N181T has a ratio to parent of 0.95. Variant chain 1 R27D has a ratio to parent of 0.91. Variant chain 1 R37A has a ratio to parent of 1.1.

Variants of: B2
Experiment: GPCA
Conditions: with partner chain of the complex shown;; read off a plot
Work on chain 1 E39A yielded a ratio to parent of 0.92. With chain 1 R27D the ratio to parent was 0.66. For chain 1 I73A, the ratio to parent was 0.11. In the case of chain 1 N181T, the ratio to parent is reported as 0.93. Work on chain 1 R37A yielded a ratio to parent of 0.06.
